According to US20250270584A1, “Gene editing to provide insect resistance in crops” (The Regents of the University of California, priority 2022, published 2025):

These substances were tested against GLR3.3-3Flag (Arabidopsis thaliana) (UniProt Q9C8E7) (assay: IP-MS, anti-Flag IP of GLR3.3-3Flag from leaves of transgenic plants; co-enrichment, may be indirect).
Chain of GLR3.3-3Flag (Arabidopsis thaliana) (Q9C8E7 24-933): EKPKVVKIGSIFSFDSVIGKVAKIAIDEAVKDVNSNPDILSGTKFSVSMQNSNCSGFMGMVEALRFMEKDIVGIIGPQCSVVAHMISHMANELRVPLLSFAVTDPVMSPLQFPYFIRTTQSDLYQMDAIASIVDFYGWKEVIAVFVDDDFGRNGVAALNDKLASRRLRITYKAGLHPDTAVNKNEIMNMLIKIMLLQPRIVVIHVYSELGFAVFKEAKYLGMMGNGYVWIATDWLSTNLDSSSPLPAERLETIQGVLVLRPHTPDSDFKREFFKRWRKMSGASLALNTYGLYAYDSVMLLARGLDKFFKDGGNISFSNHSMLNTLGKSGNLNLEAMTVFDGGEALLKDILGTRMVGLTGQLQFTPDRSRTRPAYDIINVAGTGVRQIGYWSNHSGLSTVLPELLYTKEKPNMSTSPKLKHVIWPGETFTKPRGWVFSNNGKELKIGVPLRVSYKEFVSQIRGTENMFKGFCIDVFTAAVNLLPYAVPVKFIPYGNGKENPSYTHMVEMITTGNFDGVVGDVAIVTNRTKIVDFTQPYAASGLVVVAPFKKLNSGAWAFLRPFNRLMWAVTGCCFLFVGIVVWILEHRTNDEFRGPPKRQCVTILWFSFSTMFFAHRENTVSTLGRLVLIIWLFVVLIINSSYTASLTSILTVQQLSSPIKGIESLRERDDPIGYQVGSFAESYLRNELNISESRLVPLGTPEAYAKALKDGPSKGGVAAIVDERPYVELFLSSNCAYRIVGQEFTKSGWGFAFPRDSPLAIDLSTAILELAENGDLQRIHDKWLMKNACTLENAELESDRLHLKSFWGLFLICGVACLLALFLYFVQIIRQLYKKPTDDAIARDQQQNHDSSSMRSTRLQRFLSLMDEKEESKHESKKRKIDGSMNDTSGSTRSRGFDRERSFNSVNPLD

Substance	unique peptide number (unique peptides)
AHA1 (plasma membrane proton ATPase 1) (from UniProt P20649 2-949) (enzyme)	23
AMY3 (plastid-localized α-amylase) (from UniProt Q94A41 56-887) (enzyme)	8
CAT3 (catalase) (from UniProt Q42547 1-492) (enzyme)	6
PPC2 (phosphoenolpyruvate carboxylase protein 2) (from UniProt Q5GM68 1-963) (enzyme)	12
CaM7 (calmodulin 7) (from UniProt P59220 1-149)	11
GLU1 (glutamate synthase 1) (from UniProt Q9ZNZ7 106-1622) (enzyme)	57
coatomer, alpha subunit (from UniProt Q9SJT9 1-1218)	10
TKL1 (transketolase involved in carbon fixation) (from UniProt Q8RWV0 67-741) (enzyme)	17
AHA2 (plasma membrane proton ATPase 2) (from UniProt P19456 2-948) (enzyme)	17
CAM5 (calmodulin) (from UniProt Q682T9 1-149)	7
ATMS1 (cobalamin-independent synthase family protein) (from UniProt O50008 1-765) (enzyme)	14
PIP2; 7 (plasma membrane intrinsic protein 3) (from UniProt P93004 1-280)	7
LOS1 (translation elongation factor 2-like protein) (from UniProt Q9ASR1 1-843)	21
GLR3.2 (from UniProt Q93YT1 23-912) (receptor)	4
EIF3A (a subunit of eukaryotic initiation factor 3 (eIF3)) (from UniProt Q9LD55 1-987)	4
KEA1 (K^+ efflux antiporter 1) (from UniProt Q9ZTZ7 50-1193)	5
FTIP1 (multiple C2 domain and transmembrane region protein 1) (from UniProt Q9FL59 1-794)	21
TPP2 (tripeptidyl peptidase II) (from UniProt F4JVN6 1-1380) (enzyme)	42
CAM3 (calmodulin) (from UniProt P0DH98 1-149)	7
LOX2 (chloroplast lipoxygenase 2) (from UniProt P38418 57-896) (enzyme)	9
PWD (chloroplastidic phosphoglucan, water dikinase) (from UniProt Q6ZY51 55-1196) (enzyme)	43
GLDP1 (glycine decarboxylase P-protein 1) (from UniProt Q94B78 68-1037) (enzyme)	15
TGG1 (member of glycoside hydrolase family 1) (from UniProt P37702 20-541) (enzyme)	6
HSP70-2 (member of heat shock protein 70 family) (from UniProt P22954 1-653)	12
CAT2 (catalase) (from UniProt P25819 1-492) (enzyme)	6
PIP2; 4 (plasma membrane intrinsic protein 2; 4) (from UniProt Q9FF53 1-291)	5

Further lines, results first:

unique peptide number (unique peptides)	Substance
11	GLDP2 (P-subunit of glycine decarboxylase) (from UniProt O80988 73-1044) (enzyme)
15	HSP70-1 (member of heat shock protein 70 family) (from UniProt P22953 2-651)
12	RCA (rubisco activase) (from UniProt P10896 59-474) (enzyme)
12	GLR2.6 (from UniProt Q9LFN8 32-967) (receptor)
4	GAPB (glyceraldehyde-3-phosphate dehydrogenase B subunit) (from UniProt P25857 81-447) (enzyme)
21	CLPC1 (Clp protease ATP-binding subunit homologue) (from UniProt Q9FI56 39-929)
9	GLR3.5 (from UniProt Q9SW97 30-953) (receptor)
16	TIC110 (translocon at the chloroplast inner envelope) (from UniProt Q8LPR9 52-1016)
4	CAM6 (calmodulin) (from UniProt Q03509 1-149)
13	GLU2 (glutamate synthase 2) (from UniProt Q9T0P4 108-1629) (enzyme)
17	NIT1 (nitrilase isoenzyme family) (from UniProt P32961 2-346)
4	EDD1 (glycine-tRNA ligase) (from UniProt Q8L785 51-1067) (enzyme)
62	tRNA synthetase class I (I, L, M and V) family protein (from UniProt F4JLM5 1-1190) (enzyme)
12	VEN3 (carbamoyl phosphate synthetase (CPS) large subunit) (from UniProt Q42601 63-1187) (enzyme)
7	PIP2; 1 (plasma membrane intrinsic protein 2A) (from UniProt P43286 1-287)
7	UBA1 (ubiquitin-activating enzyme (E1)) (from UniProt P93028 1-1080)
